# Measured values as given in the supplement of paper PMC9112550, “Optimization of the antimicrobial peptide Bac7 by deep mutational scanning” (BMC Biology, 2022).
# Tested on: Escherichia coli TOP10
# Assay: shrunken log2 fold change of peptide-encoding DNA abundance (4.5 h post-induction vs induction); higher = less antimicrobial activity (less host growth inhibition)
# Details: time post-induction: 4.5 h; library: site-saturation at positions 5, 18, 19, 20
# 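Note: peptides expressed intracellularly from a pBAD plasmid library in pooled LB shake-flask culture, induced with 0.3% L-arabinose, DNA abundance read by NGS, three biological replicates, DESeq2 with apeglm shrinkage.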
row,Sequence,shrunken log2 fold change
1,RRIRIRPPRLPRPRPRPYWDPRP,-0.143
2,RRIRSRPPRLPRPRPRPRPCPRP,0.137
3,RRIRCRPPRLPRPRPRPRSTPRP,0.0137
4,RRIRMRPPRLPRPRPRPIARPRP,0.184
5,RRIRLRPPRLPRPRPRPYETPRP,-0.0853
6,RRIRMRPPRLPRPRPRPTHMPRP,0.362
7,RRIRPRPPRLPRPRPRPGQEPRP,0.031
8,RRIRGRPPRLPRPRPRPYHKPRP,-0.331
9,RRIRWRPPRLPRPRPRPVCNPRP,0.0983
10,RRIRPRPPRLPRPRPRPTCTPRP,0.104
11,RRIRPRPPRLPRPRPRPLADPRP,0.188
12,RRIRQRPPRLPRPRPRPRKRPRP,-0.104
13,RRIRHRPPRLPRPRPRPALVPRP,-0.0926
14,RRIRLRPPRLPRPRPRPWTPPRP,-0.191
15,RRIRKRPPRLPRPRPRPKVKPRP,0.116
16,RRIRIRPPRLPRPRPRPMHYPRP,-0.434
17,RRIRNRPPRLPRPRPRPTQIPRP,0.135
18,RRIRKRPPRLPRPRPRPSSNPRP,-0.0818
19,RRIRSRPPRLPRPRPRPLNIPRP,-0.422
20,RRIRYRPPRLPRPRPRPYKQPRP,-0.025
21,RRIRPRPPRLPRPRPRPNYLPRP,-0.0996
22,RRIRRRPPRLPRPRPRPDCQPRP,-0.00305
23,RRIRIRPPRLPRPRPRPKERPRP,-0.00236
24,RRIRLRPPRLPRPRPRPRCYPRP,0.0161
25,RRIRFRPPRLPRPRPRPWTCPRP,-0.126

row,Sequence,shrunken log2 fold change
1,RRIRNRPPRLPRPRPRPDAIPRP,0.0267
2,RRIRLRPPRLPRPRPRPRILPRP,-0.211
3,RRIRARPPRLPRPRPRPSCAPRP,0.689
4,RRIRVRPPRLPRPRPRPTVEPRP,0.195
5,RRIRSRPPRLPRPRPRPTSRPRP,-0.0504
6,RRIRPRPPRLPRPRPRPGWPPRP,0.667
7,RRIRDRPPRLPRPRPRPQSVPRP,-0.0496
8,RRIRQRPPRLPRPRPRPRAVPRP,2.78
9,RRIRCRPPRLPRPRPRPIPSPRP,-0.308
10,RRIRPRPPRLPRPRPRPNPWPRP,0.277
11,RRIRCRPPRLPRPRPRPNCEPRP,0.223
12,RRIRCRPPRLPRPRPRPYITPRP,-1.44
13,RRIRTRPPRLPRPRPRPMTQPRP,0.13
14,RRIRNRPPRLPRPRPRPHEKPRP,-0.0437
15,RRIRYRPPRLPRPRPRPPKPPRP,0.144
16,RRIRDRPPRLPRPRPRPPPLPRP,0.586
17,RRIRGRPPRLPRPRPRPPLTPRP,0.971
18,RRIRLRPPRLPRPRPRPPSKPRP,0.148
19,RRIRLRPPRLPRPRPRPIDNPRP,-0.421
20,RRIRHRPPRLPRPRPRPWPMPRP,0.0159
21,RRIRIRPPRLPRPRPRPQWLPRP,-0.0168
22,RRIRMRPPRLPRPRPRPIYWPRP,-0.0918
23,RRIRSRPPRLPRPRPRPEHVPRP,-0.191
24,RRIRGRPPRLPRPRPRPLGTPRP,0.736
25,RRIRSRPPRLPRPRPRPPMNPRP,-0.347

row,Sequence,shrunken log2 fold change
1,RRIRERPPRLPRPRPRPCSNPRP,0.0168
2,RRIRQRPPRLPRPRPRPDMFPRP,0.0212
3,RRIRARPPRLPRPRPRPCVPPRP,-0.0952
4,RRIRRRPPRLPRPRPRPWLPPRP,0.221
5,RRIRNRPPRLPRPRPRPCEPPRP,-0.183
6,RRIRERPPRLPRPRPRPAVWPRP,0.421
7,RRIRHRPPRLPRPRPRPEITPRP,-0.0206
8,RRIRSRPPRLPRPRPRPQCYPRP,-0.569
9,RRIRFRPPRLPRPRPRPNWVPRP,-0.126
10,RRIRQRPPRLPRPRPRPINQPRP,-0.314
11,RRIRERPPRLPRPRPRPCAPPRP,-0.215
12,RRIRARPPRLPRPRPRPFVYPRP,-0.116
13,RRIRHRPPRLPRPRPRPTKRPRP,-0.0644
14,RRIRCRPPRLPRPRPRPPQYPRP,-0.0607
15,RRIRSRPPRLPRPRPRPVIMPRP,-0.36
16,RRIRDRPPRLPRPRPRPAGEPRP,0.0114
17,RRIRDRPPRLPRPRPRPDDVPRP,0.276
18,RRIRARPPRLPRPRPRPKQFPRP,0.3
19,RRIRRRPPRLPRPRPRPSHDPRP,-0.00919
20,RRIRYRPPRLPRPRPRPQPIPRP,-0.397
21,RRIRARPPRLPRPRPRPYANPRP,-0.165
22,RRIRVRPPRLPRPRPRPHPDPRP,0.015
23,RRIRTRPPRLPRPRPRPVIDPRP,-0.0797
24,RRIRIRPPRLPRPRPRPLPAPRP,0.041
25,RRIRRRPPRLPRPRPRPNIGPRP,-0.89
